Assay results reported in the supplement of paper PMC9170038.

Test system: MS2 coat protein
Assay: apparent KD of MS2 coat protein; designed switch direction (-1 OFF switch, 1 ON switch): -1; higher = weaker reporter binding
In short: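 The reported apparent KD is a per-design median over clusters, from curve fits of normalised cluster fluorescence. Protein titrations used SNAP-549-labelled MS2 coat protein, doubled from 0.7 or 1.5 nM to 3 µM, in Tris-HCl pH 7.5 buffer with KCl, MgCl2, BSA, DTT, tRNA and Tween-20, with no input, 200 uM small-molecule ligand, or an oligonucleotide input. The RNA switches were transcribed on Illumina chips by stalled E. coli RNA polymerase.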

[1] = Eterna round: R95, input ligand: microRNA oligo, concentration not stated
[2] = input ligand: microRNA oligo, concentration not stated
[3] = Eterna round: R95, input ligand: FMN 200 uM
[4] = Eterna round: R95, input ligand: none

| Sequence | apparent KD of MS2 coat protein (input ligand: FMN 200 uM) [nM] | apparent KD of MS2 coat protein (input ligand: none) [nM] | apparent KD of MS2 coat protein [1] [nM] | apparent KD of MS2 coat protein [2] [nM] | apparent KD of MS2 coat protein [3] [nM] | apparent KD of MS2 coat protein [4] [nM] |
| --- | --- | --- | --- | --- | --- | --- |
| GCGCGAAGCUAGGAUAUGGGAGCGUCUUCGCUCCCAGAAGGAGCCACAUGAGGAUCACCCAUGUGGUGAUCCUG [eternacac ex6r4 sub14] (Eterna round: R97, puzzle: Exclusion 6) | 17 | 16.5 | – | – | – | – |
| UUCUUACGAGGAUAUCGAUUGUGGUACAUGAGGAUCACCCAUGUAUGUGAUAUUGUAUUUCGAGAAGGCGUUCAGU [JR_E5_Sub059] (puzzle: Exclusion 5) | – | – | 25.2 | – | – | – |
| ACAUAAAAGGCAGGAUAUUCAAACCCAUAGCUAGAAGAAGGGCCGAAGAACUUCUAACAUGAGGAUCACCCAUGUGAGCAUGGG [Ininesxeed] (Eterna round: R96, puzzle: Exclusion NG 1) | 82.4 | 64.6 | – | 43.9 | – | – |
| GUAACAUUAAAGGCUCGUGACAUGAGGAUCACCCAUGUAUGGACCGUUCCACUUACCGACAAGCUGUGAUCGUCCUU [Eternabot (L2) Solution 22] (Eterna round: R97, puzzle: Sensor, turn-off variant 1) | 40.8 | 42 | – | – | – | – |
| AGCAGACGAGGAUAUAGAUUUGUUGACAUGAGGAUCACCCAUGUGAUCGAUCUAUCAUAUUUAGAAGGUGUCUGCU [JR_Ex5_Sub041] (Eterna round: R97, puzzle: Exclusion 5) | 18.6 | 14.3 | – | – | – | – |
| AAAUGCAAGUAAAGAUCCUACAUGAGGAUCACCCAUGUGCUCGUCUUAUAAAGUACUAUCACGAAAGUGAUAGUACA [Sensor 3, v1 - 21] (puzzle: Sensor v3, turn-off variant 1) | – | – | 30.2 | – | 161 | 211 |
| AACUAUGAAGGAUAUACAUGAGGAUCACCCAUGUUGAACUUGGCAUGUGCUCACAGAUGUAGAAGGUCAACCGU [Eternabot (Original) Solution 22] (Eterna round: R97, puzzle: Exclusion 3) | 128 | 43 | – | – | – | – |
| AGGUCCUUCUGGACACAUGAGGAUCACCCAUGUGAGGUCAGCGAGGAUAUCGGUCUAUAAUGUGACGAGAAGGCGCGGACCGAU [Ex NG3 #59] (Eterna round: R96, puzzle: Exclusion NG 3) | 16.8 | 16.4 | – | 11.3 | – | – |
| UGAAGUUGUGUGAGGAUAUCGGGCCCGAAAGGGCCCGAGAAGGCACAUGAGGAUCACCCAUGUAAGCGGCUUCG [-37.8, -35.7 kcal, A 26%, 0-3] (Eterna round: R97, puzzle: Brourd's mod of Exclusion 4) | 15.8 | 19.6 | – | – | – | – |
| AAGGACAGAGGAUAUACAUAGAUACAGAUUCAUGUAGAACUACAUGAGGAUCACCCAUGUAGAAGGCUGUCCUA [Fiskers Ex 2 - 2] (puzzle: Exclusion 2) | – | – | 29.4 | – | – | – |
| AUAAUUAAUCGAGGAUAUCAGCACGUGUAGUGCUGAGAAGGCGACAUGAGGAUCACCCAUGUGAUCAAUUAAUAUUAAUAUUAU [ENG1/11-C3] (Eterna round: R96, puzzle: Exclusion NG 1) | 1330 | 866 | – | 565 | – | – |
| CGAUAUUAUGUCAGGAUAUACAUUGCGAAAGCAAUGUAGAAGGGACAUGAGGAUCACCCAUGUUCCUACUAUCG [Omei A 1] (puzzle: Brourd's mod of Exclusion 4) | – | – | 11.9 | – | – | – |
| GUCCAGAUAGGAUAUUGUAAGGGCAACAUGAGGAUCACCCAUGUCGCAAAGAUCGCCCUUCGAGAAGGGUCCAAUU [Eternabot (L1) Solution 39] (Eterna round: R97, puzzle: Exclusion 5) | 15.7 | 17.6 | – | – | – | – |
| AAAUUGGUAGAGGAUAUCGUACAGGAAACAAUGCGAGAAGGCUGCACAUGAGGAUCACCCAUGUUCAGUUGCGA [EX6 #40] (Eterna round: R97, puzzle: Exclusion 6) | 16.8 | 15.2 | – | – | – | – |
| GCAGCGUAUGUAGGAUAUCGGUCAGUUUCUGAUCGAGAAGGACAUGAGGAUCACCCAUGUAAAUUACCGACUUUGUCGGGCUGC [JL ENG1 3.67] (Eterna round: R96, puzzle: Exclusion NG 1) | 16.3 | 16.3 | – | 14.7 | – | – |
| GUAAUGUCCGAGGAUAUCCUUCUAAAUAUAUAUGGAGAAGGCGGUACAUGAGGAUCACCCAUGUCCAAAAUGGG [Parada] (Eterna round: R97, puzzle: Exclusion 6) | 229 | 1680 | – | – | – | – |
| GUGUAGUCAGGAUAUACAUAGGAAGAUAAGAUAAGAUAAGCACAUGAGGAUCACCCAUGUAGAAGGGACAGUGU [Excluse me!! 1 - Jieux - Exclusion 2] (puzzle: Exclusion 2) | – | – | 74.2 | – | 159 | 122 |
| AUAAUAUAUGUAGGAUAUCUGCACGUUUAGUGCAGAGAAGGACAUGAGGAUCACCCAUGUAAUUAAGAUCAAUUAUUAAAUUAU [ENG1/4-B2] (Eterna round: R96, puzzle: Exclusion NG 1) | 59.5 | 40.8 | – | 29.5 | – | – |
